Where two headings read alike, the source gives them in different places.

Data set [1] deals with T1, EphrinB2 (Homo sapiens, UniProt P52799).
T1 construct: protein fusion of Ephrin B2 ectodomain with placental alkaline phosphatase
As to the kind of experiment: Ephrin B2-AP binding to immobilized EphB4EC proteins. Conditions: B4 proteins immobilized on Ni2+-resin or nitrocellulose. How it is done:
10 μl of Ni-NTA-Agarose were incubated in microcentrifuge tubes with 50 μl of indicated amount of B4ECv3 diluted in binding buffer BB (20 mM Tris-HCl, 0.15 M NaCl, 0.1% bovine serum albumin pH 8) After incubation for 30 min on shaking platform, Ni-NTA beads were washed twice with 1.4 ml of BB, followed by application of 50 μl of B2-AP in the final concentration of 50 nM. Binding was performed for 30 min on shaking platform, and then tubes were centrifuged and washed one time with 1.4 ml of BB. Amount of precipitated AP was measured colorimetrically after application of PNPP.
To confirm ability of the purified recombinant proteins to bind Ephrin B2, they were tested in an in vitro binding assay. As expected, GC, GCF1 and GCF2, but not CF2 are binding the cognate ligand Ephrin B2 as confirmed by interaction between Ephrin B2-alkaline phosphatase (Ephrin B2-AP) fusion protein with the B4 proteins immobilized on Ni^2+-resin or on nitrocellulose membrane (FIG. 17).

A further data set relates to EphB4 receptor. As to the kind of experiment: Cell-based EphB4 tyrosine kinase assay in PC3 cells. Set-up: species or system human. Conditions: Ephrin B2-Fc ligand preincubated with protein. How it is done:
All four proteins were also tested for their ability to block ligand-dependent dimerization and activation of Eph B4 receptor kinase in PC3 cells. The PC3 human prostate cancer cell line is known to express elevated levels of human Eph B4. Stimulation of PC3 cells with Ephrin B2 IgG Fc fusion protein leads to a rapid induction of tyrosine phosphorylation of the receptor. However, preincubation of the ligand with GCF2, GCF1 or GC, but not CF2 proteins suppresses subsequent EphB4 autophosphorylation.
The human prostate carcinoma cell line PC3 cells were maintained in RPMI medium with 10% dialyzed fetal calf serum and 1% penicillin/streptomycin/neomycin antibiotics mix. Cells were maintained at 37° C. in a humidified atmosphere of 5% CO2/95% air. Typically, cells were grown in 60 mm dishes until confluency and were either treated with mouse Ephrin B2-Fc fusion at 1 μg/ml in RPMI for 10 min to activate EphB4 receptor or plain medium as a control. To study the effect of different derivatives of soluble EphB4 ECD proteins on EphB4 receptor activation, three sets of cells were used. In the first set, cells were treated with various proteins (5 proteins; GC, GCF1, GCF2, GCF2-F, CF2) at 5 μg/ml for 20 min. In the second set of cells, prior to application, proteins were premixed with ephrinB2-Fc at 1:5 (EphB4 protein:B2-Fc) molar ratio, incubated for 20 min and applied on cells for 10 min. In the third set of cells, cells were first treated with the proteins for 20 min at 5 μg/ml, media was replaced with fresh media containing 1 μg/ml of EphrinB2-Fc and incubated for another 10 min.
After the stimulation, cells were immediately harvested with protein extraction buffer containing 20 mM Tris-HCl, pH 7.4, 150 mM NaCl, 1% (v/v) Triton X100, 1 mM EDTA, 1 mM PMSF, 1 mM Sodium vanadate. Protein extracts were clarified by centrifugation at 14,000 rpm for 20 min at 4° C. Clarified protein samples were incubated overnight with protein A/G coupled agarose beads pre-coated with anti-EphB4 monoclonal antibodies. The IP complexes were washed twice with the same extraction buffer containing 0.1% Triton X100. The immunoprecipitated proteins were solubilized in 1×SDS-PAGE sample loading buffer and separated on 10% SDS-PAGE. For EphB4 receptor activation studies, electroblotted membrane was probed with anti-pTyr specific antibody 4G10 at 1:1000 dilution followed by Protein G-HRP conjugate at 1:5000 dilutions.

The nature of data set [2]: In vitro stability in mouse serum (retained B2-AP binding). Type of data set: in vitro ADME. How it is done:
Both soluble EphB4 ectodomain protein (sB4) and EphB4 ectodomain fused to HSA (HSA-sB4) were biotin labeled through carbohydrate chains using sodium meta-periodate as an oxidant and EZ-Link Biotin Hydrazide (PIERCE, Cat. #21339) according to manufacture's protocol. The in vitro stability of the biotinylated sB4 protein was tested by incubating […] with 40 μL of mouse serum at 37° C. for 0, 0.5, 1, 2 and 3 days. Two μL of magnetic beads and B2-AP was added for an extra hour at room temperature. After washing twice with buffer, pnPP was added for 1 hour.
The fractions were also tested for their stability in vitro. The fractions were tested for retention of EphrinB2 binding activity after incubation in mouse serum at 37° C. for three days.

In data set [3] the target is T1, EphrinB2. As to the kind of experiment: EphrinB2 (B2-AP) binding assay on affinity magnetic beads. The settings on record: SP column fractions 1, 2 and 3. The text has this:
To test whether the B4-HSA fusion property retained the ability of the EphB4 extracellular domain to bind to EphrinB2, the ability of the purified B4-HSA fusion was compared to that of GCF2F, GCF2, GC, CF and B4-Fc fusion, which comprises the extracellular domain of B4 fused to hIgG1 Fc as described in Example 1. Biotinylated or His-tag protein samples were inoculated with the corresponding affinity magnetic beads and B2-AP for an hour at room temperature, before addition of PnPP. Results of binding assays are shown on FIG. 67.
Fractions 1, 2 and 3 of biotinylated and PEGylated sB4 from the SP column purification, corresponding to polypegylated, monopegylated and unpegylated biotinylated sB4, were tested for their ability to bind EphrinB2 using the standard assay. Results of this experiment are shown on FIG. 72.

The mark [4] stands for this setting: retention of EphrinB2 binding, mouse serum, 37° C., three days.

T1 sequence (P52799 28-229 limits assumed): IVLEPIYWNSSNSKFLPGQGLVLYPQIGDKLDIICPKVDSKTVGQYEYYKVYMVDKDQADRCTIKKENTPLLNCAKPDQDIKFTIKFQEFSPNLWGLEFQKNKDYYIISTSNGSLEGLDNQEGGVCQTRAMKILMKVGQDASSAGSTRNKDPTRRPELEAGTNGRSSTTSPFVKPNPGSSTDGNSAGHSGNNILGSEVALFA

B1: GCF2: recombinant protein containing the complete ectopic part of EphB4, 6xHis tagged, SEQ ID NO:14 (protein)
chain: MELRVLLCWASLAAALEETLLNTKLETADLKWVTFPQVDGQWEELSGLDEEQHSVRTYEVCEVQRAPGQAHWLRTGWVPRRGAVHVYATLRFTMLECLSLPRAGRSCKETFTVFYYESDADTATALTPAWMENPYIKVDTVAAEHLTRKRPGAEATGKVNVKTLRLGPLSKAGFYLAFQDQGACMALLSLHLFYKKCAQLTVNLTRFPETVPRELVVPVAGSCVVDAVPAPGPSPSLYCREDGQWAEQPVTGCSCAPGFEAAEGNTKCRACAQGTFKPLSGEGSCQPCPANSHSNTIGSAVCQCRVGYFRARTDPRGAPCTTPPSAPRSVVSRLNGSSLHLEWSAPLESGGREDLTYALRCRECRPGGSCAPCGGDLTFDPGPRDLVEPWVVVRGLRPDFTYTFEVTALNGVSSLATGPVPFEPVNVTTDREVPPAVSDIRVTRSSPSSLSLAWAVPRAPSGAWLDYEVKYHEKGAEGPSSVRFLKTSENRAELRGLKRGASYLVQVRARSEAGYGPFGQEHHSQTQLDESEGWREQGSKRAILQIEGKPIPNPLLGLDSTRTGHHHHHH
modifications: Recombinant FL-hB4EC
For B1, the “binding the cognate ligand Ephrin B2” value with EphrinB2 [1] is listed as “binding”. Further, in the data set with EphB4 receptor, the EphB4 autophosphorylation result is on record as “suppresses”.

B2: sB4: soluble EphB4 ectodomain protein, biotin labeled through carbohydrate chains; SP column fraction 3 (protein)
chain: LEETLLNTKLETADLKWVTFPQVDGQWEELSGLDEEQHSVRTYEVCDVQRAPGQAHWLRTGWVPRRGAVHVYATLRFTMLECLSLPRAGRSCKETFTVFYYESDADTATALTPAWMENPYIKVDTVAAEHLTRKRPGAEATGKVNVKTLRLGPLSKAGFYLAFQDQGACMALLSLHLFYKKCAQLTVNLTRFPETVPRELVVPVAGSCVVDAVPAPGPSPSLYCREDGQWAEQPVTGCSCAPGFEAAEGNTKCRACAQGTFKPLSGEGSCQPCPANSHSNTIGSAVCQCRVGYFRARTDPRGAPCTTPPSAPRSVVSRLNGSSLHLEWSAPLESGGREDLTYALRCRECRPGGSCAPCGGDLTFDPGPRDLVEPWVVVRGLRPDFTYTFEVTALNGVSSLATGPVPFEPVNVTTDREVPPAVSDIRVTRSSPSSLSLAWAVPRAPSGAVLDYEVKYHEKGAEGPSSVRFLKTSENRAELRGLKRGASYLVQVRARSEAGYGPFGQEHHSQTQLDESEGWREQLA
With B2, in data set [2], the “B2 binding activity lost” value was “less than 10%” and the “order of in vitro stability” value is “monopegylated>unpegylated>polypegylated”. Also, in the data set with EphrinB2 [3], the “order of binding activity” value is “Unpegylated>monopegylated>polypegylated”.

B3: monopegylated: fraction 2: monopegylated biotinylated sB4, linear PEG-succinimidyl propionate of about 20 kda (conjugate)
chain: LEETLLNTKLETADLKWVTFPQVDGQWEELSGLDEEQHSVRTYEVCDVQRAPGQAHWLRTGWVPRRGAVHVYATLRFTMLECLSLPRAGRSCKETFTVFYYESDADTATALTPAWMENPYIKVDTVAAEHLTRKRPGAEATGKVNVKTLRLGPLSKAGFYLAFQDQGACMALLSLHLFYKKCAQLTVNLTRFPETVPRELVVPVAGSCVVDAVPAPGPSPSLYCREDGQWAEQPVTGCSCAPGFEAAEGNTKCRACAQGTFKPLSGEGSCQPCPANSHSNTIGSAVCQCRVGYFRARTDPRGAPCTTPPSAPRSVVSRLNGSSLHLEWSAPLESGGREDLTYALRCRECRPGGSCAPCGGDLTFDPGPRDLVEPWVVVRGLRPDFTYTFEVTALNGVSSLATGPVPFEPVNVTTDREVPPAVSDIRVTRSSPSSLSLAWAVPRAPSGAVLDYEVKYHEKGAEGPSSVRFLKTSENRAELRGLKRGASYLVQVRARSEAGYGPFGQEHHSQTQLDESEGWREQLA
As for B3, in data set [2] (setting [4]), the “order of in vitro stability” value is listed as “monopegylated>unpegylated>polypegylated”. The “order of binding activity” value with EphrinB2 [3] is “Unpegylated>monopegylated>polypegylated”.

B4: polypegylated: fraction 1: polypegylated biotinylated sB4, linear PEG-succinimidyl propionate of about 20 kda (conjugate)
chain: LEETLLNTKLETADLKWVTFPQVDGQWEELSGLDEEQHSVRTYEVCDVQRAPGQAHWLRTGWVPRRGAVHVYATLRFTMLECLSLPRAGRSCKETFTVFYYESDADTATALTPAWMENPYIKVDTVAAEHLTRKRPGAEATGKVNVKTLRLGPLSKAGFYLAFQDQGACMALLSLHLFYKKCAQLTVNLTRFPETVPRELVVPVAGSCVVDAVPAPGPSPSLYCREDGQWAEQPVTGCSCAPGFEAAEGNTKCRACAQGTFKPLSGEGSCQPCPANSHSNTIGSAVCQCRVGYFRARTDPRGAPCTTPPSAPRSVVSRLNGSSLHLEWSAPLESGGREDLTYALRCRECRPGGSCAPCGGDLTFDPGPRDLVEPWVVVRGLRPDFTYTFEVTALNGVSSLATGPVPFEPVNVTTDREVPPAVSDIRVTRSSPSSLSLAWAVPRAPSGAVLDYEVKYHEKGAEGPSSVRFLKTSENRAELRGLKRGASYLVQVRARSEAGYGPFGQEHHSQTQLDESEGWREQLA
With B4, the “order of in vitro stability” value in data set [2] (setting [4]) is given as “monopegylated>unpegylated>polypegylated”. For the same molecule, in the data set with EphrinB2 [3], the “order of binding activity” value is recorded as “Unpegylated>monopegylated>polypegylated”.

B5: CF2: EphB4 ECD version with deleted globular domain, SEQ ID NO:15 (protein)
chain: MELRVLLCWASLAAALEETLLNTKLETQLTVNLTRFPETVPRELVVPVAGSCVVDAVPAPGPSPSLYCREDGQWAEQPVTGCSCAPGFEAAEGNTKCRACAQGTFKPLSGEGSCQPCPANSHSNTIGSAVCQCRVGYFRARTDPRGAPCTTPPSAPRSVVSRLNGSSLHLEWSAPLESGGREDLTYALRCRECRPGGSCAPCGGDLTFDPGPRDLVEPWVVVRGLRPDFTYTFEVTALNGVSSLATGPVPFEPVNVTTDREVPPAVSDIRVTRSSPSSLSLAWAVPRAPSGAWLDYEVKYHEKGAEGPSSVRFLKTSENRAELRGLKRGASYLVQVRARSEAGYGPFGQEHHSQTQLDESEGWREQGGRSSLEGPRFEGKPIPNPLLGLDSTRTGHHHHHH
modifications: Recombinant B4-CF2
As to B5, the “binding the cognate ligand Ephrin B2” value with EphrinB2 [1] is “not”. Also, the EphB4 autophosphorylation entry with EphB4 receptor is on record as “not”.

For the origin of these results see patent US9533026B2, “Polypeptide compounds for inhibiting angiogenesis and tumor growth” (VasGene Therapeutics, Inc., priority 2004, dated 2017).
